Measured values: patent publication US10247735B2, “Compositions and methods for regulating glucose metabolism” (The J. David Gladstone Institutes, priority 2011, dated 2019)
Each block holds one molecule with its values, some of them ahead of it.

Tests used:
p75^NTR ICD = biological target: T1, p75^NTR ICD (Homo sapiens, UniProt P08138); assay: Peptide array of Rab31 peptides with GST-p75^NTR ICD; type: binding; conditions: peptide array of overlapping Rab31 peptides, 1 μg/ml GST-p75^NTR ICD
T1 construct: peptide array data of Rab31 peptides with p75^NTR intracellular domain (ICD)
T1 sequence (P08138 273-427 limits assumed): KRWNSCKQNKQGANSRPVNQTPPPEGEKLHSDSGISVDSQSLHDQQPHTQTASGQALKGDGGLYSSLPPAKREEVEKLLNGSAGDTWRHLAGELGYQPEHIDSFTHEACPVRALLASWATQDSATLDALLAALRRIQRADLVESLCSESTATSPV
Method: Peptide arrays were manufactured by Kinexus Bioinformatics Corporation (Vancouver, Canada). Synthetic overlapping peptides (25 amino acids in length) for Rab31 were spotted on nitrocellulose membranes. Membranes were overlaid with 1 μg/ml recombinant GST-p75^NTR ICD. Bound recombinant GST-p75ICD were detected using rabbit anti-p75^NTR (1:1000, Millipore) followed by secondary anti-rabbit horseradish peroxidase antibody (1:5000, Cell Signaling).

Rab5 = assay: Peptide array mapping of p75ICD peptides with GST-Rab5; type: binding; conditions: peptide array of overlapping p75ICD peptides, 1 μg/ml GST-Rab5
Method: (§1) Peptide arrays were manufactured by Kinexus Bioinformatics Corporation (Vancouver, Canada). Synthetic overlapping peptides (25 amino acids in length) for p75ICD were spotted on nitrocellulose membranes. Membranes were overlaid with 1 μg/ml recombinant GST-Rab31, GST-Rab5 and p75^NTR ICD. Bound recombinant GST-Rab31 and GST-Rab5 were detected using rabbit anti-GST (1:1000, Cell Signaling) and bound recombinant p75ICD was detected using rabbit anti-p75^NTR (1:1000, Millipore) followed by secondary anti-rabbit horseradish peroxidase antibody (1:5000, Cell Signaling).

Rab31 = biological target: T2, Rab31 (Homo sapiens, UniProt Q13636); assay: Peptide array mapping of p75ICD peptides with GST-Rab31; type: binding; conditions: peptide array of overlapping p75ICD peptides, 1 μg/ml GST-Rab31
T2 sequence (Q13636 1-195): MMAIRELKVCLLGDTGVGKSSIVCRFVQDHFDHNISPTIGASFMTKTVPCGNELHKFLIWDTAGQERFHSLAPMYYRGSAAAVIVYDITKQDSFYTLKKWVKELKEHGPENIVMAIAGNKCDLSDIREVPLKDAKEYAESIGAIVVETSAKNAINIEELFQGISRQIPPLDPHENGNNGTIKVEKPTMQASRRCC
Method: as §1

3T3L1 adipocytes = assay: Glucose uptake assay in 3T3L1 adipocytes; type: cell-based, mouse; conditions: for glucose uptake: addition of neurotrophin ligand, 100 ng/ml NGF or 50 ng/ml BDNF; for basal and insulin-stimulated glucose uptake: neurotrophin treatment for 1 h before insulin stimulation
Method: 3T3L1 cells were maintained in DMEM containing 10% bovine serum. All media were supplemented with 1% penicillin/streptomycin (Invitrogen). Mouse embryonic fibroblasts (MEFs) were isolated from wild-type (WT) and p75^NTR−/− embryos as described (5). Briefly, heads and internal organs were removed from E12-14 embryos, and the remaining embryo was minced with scissors. Ten ml of ice cold phosphate-buffered saline (PBS) was added and minced embryos were centrifuged for 5 minutes at 500×g. Each embryo was resuspended in 7.5 ml Trypsin-EDTA for 20 minutes at 37° C. with occasional shaking. After trypsin deactivation by 7.5 ml DMEM with 10% FBS the suspension was poured through a 70 μm filter and cells were cultured in DMEM with 10% fetal bovine serum (FBS). Differentiation of 3T3L1 cells and MEFs was performed as described (6). Briefly, differentiation was induced by incubating confluent monolayers for 3 days in DMEM containing 10% fetal bovine serum (FBS), 0.5 mM 3-isobutyl-1-methylxanthine, 0.4 μg/ml dexamethasone, and 1 μg/ml of insulin. Medium was replaced every 2 days with DMEM containing 10% FBS. After 8-12 days, 75% of the cells expressed the adipocyte phenotype as assessed by Oil Red O. Isolation of primary adipocytes from epididymal fat pads was performed as described (7). Briefly, fat pads were minced in Krebs-Ringer Bicarbonate-Hepes (KRBH) buffer, pH 7.4, treated with collagenase (Invitrogen) for 40 min, filtered through a nylon strainer and centrifuged at 400×g for 1 minute. Fully-differentiated adipocytes were transfected by electroporation using Amaxa Cell Line Nucleofector kit L (Lonza) following manufacturer's instructions. For p75^NTR knockdown experiments, 3T3L1 cells were differentiated for 6-8 days and infected with lentivirus encoding a short hairpin shRNA for mouse p75^NTR (8) and L6 myocytes were transfected with siGENOME SMART pool for rat p75^NTR (Thermo Scientific).
Fully differentiated 3T3L1 adipocytes and eight day differentiated WT and p75^NTR−/− MEFs were serum-starved for 3 hrs in DMEM and then equilibrated in Hepes/Salt (H/S) buffer for 30 min prior to treatment with 100 nM insulin for 30 min at 37° C. Thirty min after the addition of insulin, [^3H]-2-deoxyglucose (Amersham) and 2 mM 2-deoxyglucose (Sigma) in H/S buffer was added. After incubation at 37° C. for 10 min, the reactions were terminated by washing twice with ice-cold PBS. Cells were lysed in 1 M NaOH for 30 min at room temperature. An equal volume of 1 M HCl was added and incorporated radioactivity was measured by liquid scintillation counting. […] The fat cells were isolated and the level of radioactivity was counted. […]

binding to p75^NTR ICD (p75^NTR ICD): binds
Molecule: EHGPENIVMAIAGNK [Peptide 6]

Molecule: LLASWATQDSATLDA [peptide 7, p75^NTR ICD death-domain peptide, aa 386-400, helix 4 and region between helixes 4 and 5]
interaction with Rab5-GST (Rab5): strongest interactions | interaction with Rab31-GST (Rab31): strongest interactions

Molecule: NGF: p75^NTR neurotrophin ligand, nerve growth factor (Peprotech)
glucose uptake (3T3L1 adipocytes): did not affect | basal and insulin-stimulated glucose uptake (3T3L1 adipocytes): No statistically significant differences

B1: BDNF: p75^NTR neurotrophin ligand, brain-derived neurotrophic factor (Peprotech) (protein, UniProt P23560 19-247, looked up)
Neurotrophic factor BDNF …: APMKEANIRGQGGLAYPGVRTHGTLESVNGPKAGSRGLTSLADTFEHVIEELLDEDQKVRPNEENNKDADLYTSRVMLSSQVPLEPPLLFLLEEYKNYLDAANMSMRVRRHSDPARRGELSVCDSISEWVTAADKKTAVDMSGGTVTVLEKVPVSKGQLKQYFYETKCNPMGYTKEGCRGIDKRHWNSQCRTTQSYVRALTMDSKKRIGWRFIRIDTSCVCTLTIKRGR
glucose uptake (3T3L1 adipocytes): did not affect | basal and insulin-stimulated glucose uptake (3T3L1 adipocytes): No statistically significant differences
